The text below walks through data of patent publication CN1930187A.

The koff is the first-order rate constant of dissociation. For orientation: kon means the second-order rate constant of association. As usually defined, the Kd is the concentration at which binding is half-saturated. A low value points to higher affinity.

Experiment [1] deals with EGFRvIII-rabbit Fc fusion protein (EGFRvIII-RbFc) (human; rabbit) (UniProt P00533). Kind of experiment: ELISA, transfection supernatant titrated on EGFRvIII-Rab Ig Fc coat. On the technique in general: An ELISA detects its analyte on a solid surface through an enzyme-linked reagent.
For experiment [2], the target named is T1, Pep-3, NH2-…-OH (MW 1590 Da) (human).
T1 sequence (peptide): LEEKKGNYVVTDHG
Kind of experiment: SPR (Biacore 2000), mAb immobilised, pep-3 injected, 1:1 model. Background: SPR reads the build-up and loss of mass on a sensor chip optically.

Experiment [3] shares this target. Briefly: SPR (Biacore 2000), mAb immobilised, pep-3 injected.

B1: SC-EGFRvIII-XG1-250 (antibody, human IgG1, V domains shown)
VH: EGQLLESGGGWVQPGESLRLSCAASGFTFSSYAMSWVRQAPGKGLEWVSAISGSGGSTNYADSVKGRFTISRDNSKNTLYLQVNSLRVEDTAVYYCAGSSGWSEYWGQGTLVTVSS
VL: DIQMTQSPSSLSASVGDSVTITCRTSQGIRKNLGWYQQKPGKAPKRLIYAASSLQSGVPSRFSGSGSGTEFTLTISRLQPEDFATYYCLQHHSYPLTFGGGTRVEIR
In turn, B1 showed a titre, antigen binding (抗原结合) (titre (1:x dilution)) in experiment [1] greater than 64.

B2: SC-EGFRvIII-XG1-139 (antibody, human IgG1, V domains shown)
VH: EVQVLESGGGLVQPGGSLRLSCAASGFTFSSYAMSWVRQAPGKGLEWVSAISGSGGSTNYADSVKGRFTISRDNSKNTLYLQMNSLRAEDTAVYYCAGSSGWSEYWGQGTLVTVSS
VL: DIQMTQSPSSLSASVGDRVTITCRASQGIRNNLAWYQQKPGKAPKRLIYAASNLQSGVPSRFTGSGSGTEFTLIVSSLQPEDFATYYCLQHHSYPLTSGGGTKVEIK
In experiment [1], B2 came in with a titre, antigen binding (抗原结合) (titre (1:x dilution)) greater than 64. In experiment [2], this molecule returned a koff of 0.00298 s⁻¹ and a kon of 10300 M⁻¹ s⁻¹. In experiment [3], this molecule came in with a dissociation constant Kd of 0.29 µM, an off-rate (koff) of 0.00298 s⁻¹ and a kon of 10300 M⁻¹ s⁻¹.

B3: SC-EGFRvIII-XG2-170 (antibody, human IgG1, V domains shown)
VH: QVQLQQSGPGLVKPSQTLSLTCAISGDSVSSNNAAWNWIRQSPARGLEWLGRTYYRSKWYNDYVVSVKSRITINPDTSKNQFSLQLNSVTPEDTAVYYCVRATAFDYWGQGTLVTVSS
VL: AIVLTQTPLSSPVTLGQPASISCRSSQSLVHRDGNTYLSWLQQRPGQPPRLLIYKISNRFSGVPDRFSGSGAGTDFTLKISRVEPDDVGVYYCMHTTQLPWTFGQGTKVEIK
In experiment [1], B3 had a titre, antigen binding (抗原结合) (titre (1:x dilution)) greater than 64.

B4: SC-EGFRvIII-XG2-150 (antibody, human IgG1, V domains shown)
VH: QVQLQQSGPGLVKPSQTLSLTCAISGDSVSSYSSAWNWIRQSPSRGLEWLGRAYHRSRWYYEYAVSVKSRINITPDTSKNQFSLQLNSVTPEDTAVYYCARGSRFDYWGQGTLVTVSS
VL: DIVMTQTPLSSPVTLGQPASISCRSSQSLVHRDGNTYLSWLQQRPGQPPRLLIYKISNRFSGVPDRFSGSGAGTDFTLKISRVEAEDVGIYFCMHTTQFPWTFGQGTRVEIK
On to B4, for which the titre, antigen binding (抗原结合) (titre (1:x dilution)) in experiment [1] is greater than 64.

B5: SC-EGFRvIII-XG1-123/124 (antibody, human IgG1, V domains shown)
VH: QVQLVESGGGVVQPGRSLRLSCAASGFTLSSYGMHWVRQAPGKGLEWVAVMSYDGSKEDYADSVKGRFTISRDNSENTLYLQMNSLRAEDTAVYYCVSEGYCSSRSCYKYYYYGMDVWGQGTTVTVSS
VL: DIVMTQSPLSLPVTPGEPASISCRSSQSLLYRNGNNYLDWYLQKPGQSPQLLIYLGSNRASGVPDRFSGSGSGTDFTLNISRVEAEDVGHYYCMQALQTPRTFGQGTKVEIK
For the molecule B5, the titre, antigen binding (抗原结合) (titre (1:x dilution)) in experiment [1] is greater than 64.

B6: SC-EGFRvIII-XG1-211 (antibody, human IgG1, V domains shown)
VH: QVQLVESGGGVVQPGRSLRLSCVASGFTLSSYGMHWVRQAPGKGLEWVAVTSYDGSKKDYADSAKGRFTISRDNSKNTLYLQMNSLRAEDTAVYYCVSEGYCSSSSCYKYYYYGMDVWGQGTTVTVSS
VL: DIVMTQSPLSLPVTPGEPASISCRSSQSLLYRNGNNYLDWYLQRPGQSPQLLIYLGSNRASGVPDRFSGSGSGTDFTLKISRVEAEDVGVYYCMQALQTPRTFGQGTKVEIK
B6 gave a titre, antigen binding (抗原结合) (titre (1:x dilution)) in experiment [1] greater than 64.

B7: SC-EGFRvIII-XG1-342 (antibody, human IgG1, V domains shown)
VH: QVQLVESGGGVVQPGRSLRLSCVASGFTLSSYGMHWVRQAPGKGLEWVAVTSYDGSKKDYADSVKGRFTISRDNSKNTLYLQMNSLRAEDTAVYYCVSEGYCDSTSCYKYYYYGMDVWGQGTTVTVSS
VL: DIVMTQSPLSLPVTPGEPASISCRSSQSLLYRNGNNYLDWYLQRPGQSPQLLIYLGSNRASGVPDRFSGSGSGTDFTLKISRVEAEDVGVYYCMQALQTPRTFGQGTKVEIK
For the molecule B7, the titre, antigen binding (抗原结合) (titre (1:x dilution)) in experiment [1] was greater than 64.

B8: SC-EGFRvIII-XG1-333 (antibody, human IgG1, V domains shown)
VH: QVQLVESGGGVVQPGRSLRLSCVASGFTLSSYGMHWVRQALGKGLEWVAVTSYDGSKKDYADSVKGRFTISRDNSKNTLYLQMNSLRAEDTAVYYCVSEGYCDSTSCYKYYYYGMDVWGQGTTVTVSS
VL: DIVMTQSPLSLPVTPGEPASISCRSSQSLLYRNGNNYLDWYLQRPGQSPQLLIYLGSNRASGVPDRFSGSGSGTDFTLKISRVEAEDVGVYYCMQALQTPRTFGQGTKVEIK
In experiment [1], B8 came in with a titre, antigen binding (抗原结合) (titre (1:x dilution)) greater than 64.

B9: SC-EGFRvIII-XG1-318 (antibody, human IgG1, V domains shown)
VH: QVQLVESGGGVVQPGRSLRLSCVASGFTLSSYGMHWVRQAPGKGLEWVAVTSYDGSKKDYADSVKGRFTISRDNSKNTLYLQMNSLRAEDTAVYYCVSEGYCDSSSCYKYYYYGMDVWGQGTTVTVSS
VL: DIVMTQSPLSLPVTPGEPASISCRSSQSLLYRNGNNYLDWYLQRPGQSPQLLIYLGSNRASGVPDRFSGSGSGTDFTLKISRVEAEDVGVYYCMQALQTPRTFGQGTKVEIK
Take B9: in experiment [1], the titre, antigen binding (抗原结合) (titre (1:x dilution)) was 64.

B10: AB-EGFRvIII-XG1-095 (antibody, human IgG1, V domains shown)
VH: QVQLQESGPFLVKPSQTLSLTCTVSGGSISSGGYYWSWIRQHPGKGLEWIGFIYYRGNTYYNPSLKSRVTISVDTSKNQFSLKLSSVTAADTAVYYCARDGYCSRTGCYGGWFDPWGQGTLVTVSP
VL: DIVMTQTPLSSPVTLGQPASISCRSSQSLIHTDGNIYLSWLQQRPGQPPRLLIYKISNRFSGVPDRFSGSGAGTDFTLKISRVEAEDVGVYYCMQGTQFPITFGQGTRLEIK
Take B10: in experiment [2], the koff was found to be 0.00993 s⁻¹ and the kon stood at 149000 M⁻¹ s⁻¹. For the same molecule, in experiment [3], the Kd came to 0.066 µM, the off-rate (koff) is 0.0099 s⁻¹ and the kon was 149000 M⁻¹ s⁻¹.
